Patent EP4541814A1 (Cytiva BioProcess R&D AB, dated 2025)
Changes are numbered by the printed parent chain.

B1: vh247 (SEQ ID NO:89) (VHH)
VHH: QVQLVQSGGGSVQAGGSLRLSCTISGRTLSDYTMGWFRQRPGKEREFVAAISWSGAYTKYADSVKGRFTISRDNAKNTVYLQMNSLKPEDTAVYYCAAGPTGLLSKKATPADYDYWGQGTQVTVSS
B2: vh255 (SEQ ID NO:99) (VHH)
VHH: B1 VHH with V5Q, I24S
B3: vh254 (SEQ ID NO:97) (VHH)
VHH: B1 VHH with V5Q, T23S
B4: vh344 (SEQ ID NO:98) (VHH)
VHH: B1 VHH with V5Q, T23A, V93I
B5: vh118 (SEQ ID NO:80), Example 3 construct (VHH)
VHH: B1 VHH with V5Q
B6: vh251 (SEQ ID NO:93) (VHH)
VHH: B1 VHH with V5Q, A14T
B7: vh248 (SEQ ID NO:90) (VHH)
VHH: B1 VHH with V5E
B8: vh256 (SEQ ID NO:100) (VHH)
VHH: B1 VHH with V5Q, I24V
B9: vh250 (SEQ ID NO:92) (VHH)
VHH: B1 VHH with V5Q, A14S
B10: vh249 (SEQ ID NO:91) (VHH)
VHH: B1 VHH with V5Q, Q6E
B11: vh253 (SEQ ID NO:95) (VHH)
VHH: B1 VHH with V5Q, R19S
B12: vh332 (SEQ ID NO:96) (VHH)
VHH: B1 VHH with V5Q, T23V
B13: vh252 (SEQ ID NO:94) (VHH)
VHH: B1 VHH with V5Q, R19K
B14: vh345 (SEQ ID NO:104) (VHH)
VHH: B1 VHH with V5Q, R40A, V93I
B15: vh258 (SEQ ID NO:102) (VHH)
VHH: B1 VHH with V5Q, R40I
B16: vh266 (SEQ ID NO:112) (VHH)
VHH: B1 VHH with V5Q, R45L
B17: vh257 (SEQ ID NO:101) (VHH)
VHH: B1 VHH with V5Q, R40T
B18: vh262 (SEQ ID NO:108) (VHH)
VHH: B1 VHH with V5Q, E44Q
B19: vh265 (SEQ ID NO:111) (VHH)
VHH: B1 VHH with V5Q, E44G
B20: vh260 (SEQ ID NO:106) (VHH)
VHH: B1 VHH with V5Q, K43Q
B21: vh341 (SEQ ID NO:103) (VHH)
VHH: B1 VHH with V5Q, R40K
B22: vh263 (SEQ ID NO:109) (VHH)
VHH: B1 VHH with V5Q, E44A
B23: vh264 (SEQ ID NO:110) (VHH)
VHH: B1 VHH with V5Q, E44D
B24: vh261 (SEQ ID NO:107) (VHH)
VHH: B1 VHH with V5Q, K43R
B25: vh346 (SEQ ID NO:114) (VHH)
VHH: B1 VHH with V5Q, F47L, V93I
B26: vh259 (SEQ ID NO:105) (VHH)
VHH: B1 VHH with V5Q, K43G
B27: vh325 (SEQ ID NO:113) (VHH)
VHH: B1 VHH with V5Q, R45I
B28: Nb274 (SEQ ID NO:125) (VHH)
VHH: B1 VHH with V5Q, N77E
B29: vh270 (SEQ ID NO:121) (VHH)
VHH: B1 VHH with V5Q, A61S
B30: Nb329 (SEQ ID NO:127) (VHH)
VHH: B1 VHH with V5Q, N77D
B31: vh278 (SEQ ID NO:130) (VHH)
VHH: B1 VHH with V5Q, Y80A
B32: Nb273 (SEQ ID NO:124) (VHH)
VHH: B1 VHH with V5Q, N77S
B33: vh282 (SEQ ID NO:135) (VHH)
VHH: B1 VHH with V5Q, S85Q
B34: vh331 (SEQ ID NO:140) (VHH)
VHH: B1 VHH with V5Q, V93L
B35: vh281 (SEQ ID NO:134) (VHH)
VHH: B1 VHH with V5Q, S85T
B36: Nb277 (SEQ ID NO:129) (VHH)
VHH: B1 VHH with V5Q, Y80V
B37: vh271 (SEQ ID NO:122) (VHH)
VHH: B1 VHH with V5Q, A61V
B38: vh280 (SEQ ID NO:133) (VHH)
VHH: B1 VHH with V5Q, S85N
B39: vh330 (SEQ ID NO:132) (VHH)
VHH: B1 VHH with V5Q, Y80W
B40: vh284 (SEQ ID NO:137) (VHH)
VHH: B1 VHH with V5Q, V93A
B41: vh279 (SEQ ID NO:131) (VHH)
VHH: B1 VHH with V5Q, Y80F
B42: Nb276 (SEQ ID NO:128) (VHH)
VHH: B1 VHH with V5Q, Y80L
B43: vh328 (SEQ ID NO:119) (VHH)
VHH: B1 VHH with V5Q, A61Q
B44: vh269 (SEQ ID NO:120) (VHH)
VHH: B1 VHH with V5Q, A61T
B45: vh275 (SEQ ID NO:126) (VHH)
VHH: B1 VHH with V5Q, N77Q
B46: vh327 (SEQ ID NO:118) (VHH)
VHH: B1 VHH with V5Q, A61N
B47: vh286 (SEQ ID NO:139) (VHH)
VHH: B1 VHH with V5Q, V93I
B48: Candidate 4A-1: vh342 fusion protein (SEQ ID NO:163) (VHH)
VHH: B1 VHH with V5Q, Q6E, S11L, A14P, T23A, I24A, R40A, E44Q, A61T, N77T
B49: vh428 (SEQ ID NO:146) fused to SEQ ID NO:160, Example 5 (VHH)
chain (part 1 of 2): B1 VHH with V5Q, Y32F, G35A, K59Y, K106R, A108T, D114Q
chain (part 2 of 2): not shown
B50: vh359 (SEQ ID NO:145) fused to SEQ ID NO:160, Example 5 (VHH)
chain (part 1 of 2): B1 VHH with Q6E, R19S, Y32F, G35A, K59Y, A61T, N84Q, K106R, A108T, D114Q
chain (part 2 of 2): not shown
B51: vh118 (SEQ ID NO:80) fused to SEQ ID NO:160, Example 5 (VHH)
chain (part 1 of 2): B1 VHH with V5Q
chain (part 2 of 2): not shown
B52: vh374 (SEQ ID NO:144) fused to SEQ ID NO:160, Example 5 (VHH)
chain (part 1 of 2): QVQLQQSGGGSVQAGGSLRLSCTSSGRTLSDFTMAWFRQRPGRAREFVAAISWSGAYTYYTDSVKGRFTISRDNAKNTVFLQMQSLKPEDTAIYYCAAGPTGLLSRKTTPADYQYWGQGTQVTVSS
chain (part 2 of 2): not shown

Target: T1, AAV9 viral particles (adeno-associated virus 9)
Assay: SPR (Biacore), polypeptide amine-coupled to CM5, AAV9 analyte; response normalized to SEQ ID NO:80

Row | Binder | Normalized AAV9 binding capacity (%)
1 | B1 | 106%
2 | B2 | 103%
3 | B3 | 73%
4 | B4 | 100%
5 | B5 | 100%
6 | B6 | 99%
7 | B7 | 105%
8 | B8 | 102%
9 | B9 | 96%
10 | B10 | 86%
11 | B11 | 86%
12 | B12 | 98%
13 | B13 | 92%

Target: T1, AAV9 viral particles
Assay: as above
Remark: another data set of the same source

Row | Binder | Normalized AAV9 binding capacity (%)
14 | B14 | 101%
15 | B15 | 87%
16 | B16 | 115%
17 | B17 | 69%
18 | B18 | 104%
19 | B19 | 101%
20 | B5 | 100%
21 | B20 | 77%
22 | B21 | 83%
23 | B22 | 108%
24 | B23 | 92%
25 | B24 | 105%
26 | B25 | 100%
27 | B26 | 72%
28 | B27 | 97%

Target: T1, AAV9 viral particles
Assay: as above
Remark: another data set of the same source

Row | Binder | Normalized AAV9 binding capacity (%)
29 | B28 | 91%
30 | B14 | 101%
31 | B29 | 103%
32 | B30 | 111%
33 | B31 | 99%
34 | B32 | 82%
35 | B33 | 88%
36 | B34 | 109%
37 | B4 | 100%
38 | B5 | 100%
39 | B35 | 103%
40 | B36 | 80%
41 | B37 | 105%
42 | B38 | 100%
43 | B39 | 112%
44 | B40 | 109%
45 | B41 | 98%
46 | B42 | 92%
47 | B43 | 110%
48 | B44 | 85%
49 | B25 | 100%
50 | B45 | 94%
51 | B46 | 109%
52 | B47 | 112%

Target: T1, AAV9 viral particles
Assay: SPR (Biacore 8K+), fusion protein amine-coupled to CM5, AAV9 2E12 vp/ml, report point late binding

Row | Binder | Binding capacity AAV9 (2E12 vp/ml) (RU)
53 | B48 | 9920 RU

Target: T1, AAV9 viral particles
Assay: SPR (Biacore 8K+), fusion protein amine-coupled to CM5, AAV9 2E12 vp/ml; response normalized to vh118

Row | Binder | Normalized AAV9 binding capacity (%)
54 | B49 | 108%
55 | B50 | 86.4%
56 | B51 | 100%
57 | B52 | 102%
